Assay results: patent US20190091227A1, “METHODS FOR TREATING ER+, HER2-, HRG+ BREAST CANCER USING COMBINATION THERAPIES COMPRISING AN ANTI-ERBB3 ANTIBODY” (Merrimack Pharmaceuticals, Inc., priority 2016, published 2019)
Entries after “also recorded” stand apart in the source; their conditions may differ. Like-named read-outs stand apart in the source and are kept apart here.

Experiments:
RB = RB phosphorylation (S807/811, S780) by Western blotting in MCF7 cells; type: cell-based, human; conditions: MCF7, 20-24 hours; HRG 10 nM, fulvestrant 50 nM, palbociclib, abemaciclib 40 nM
Procedure: MCF7 cells were cultured as described above. […] Cellular lysates were prepared by lysis in MPER lysis buffer with the addition of protease and phosphatase inhibitors for 30 mins on ice. Cellular debris were removed by centrifugation at 10,000 rpm. Proteins were analyzed by Western blotting according to standard protocols. Protein loading was estimated by blotting with a β-actin antibody (β-Actin (13E5) Rabbit mAb #4970 Cell Signal) and RB activation was measured by detection of phosphorylation of RB (pRB) at pRb (S807/811): Cat #8516 pRb (S780): Cat #8180. Control antibodies as follows total AKT: Cat #9272 pAKT: Cat #4060.

MCF7 cells [1] = assay: Proliferation assay (Cell Titer-Glo), MCF7; type: cell-based, human
Procedure: (§1) Cells were seeded in duplicate or triplicate at 1500 to 5000 cells per well in 96 well plates, Opaque-walled 96-well plates with clear bottom: 96-well, Black/Clear, Flat bottom with lid, FALCON, 353219 in reduced serum conditions at either 3% v/v FBS or 1% v/v FBS. The day after plating recombinant HRGβ1 was added to yield a final concentration of 10 nM. Control wells received media without HRGβ1. Plates were then incubated for the indicated time period of 4 to 6 days at 37° C. in a humid atmosphere with 95% air, 5% CO2.
(§2) The day after plating recombinant HRGβ1 was added to yield a final concentration of 10 nM. Control wells received media without HRGβ1. […] Where indicated CDK inhibitors were added at 10 μM and dilutions were performed to generate a dose-response curve with 2 controls wells per row. Plates were then incubated for the indicated time period of 4 to 6 days at 37° C. in a humid atmosphere with 95% air, 5% CO2. Growth inhibition was calculated as a function of the relative inhibition or proliferation of cells treated with either growth factor or antagonists to cells treated with diluent only, over the same time period.
(§3) The day after plating recombinant HRGβ1 was added to yield a final concentration of 10 nM. Control wells received media without HRGβ1. […] Where indicated CDK inhibitors were added at 10 μM and dilutions were performed to generate a dose-response curve with 2 controls wells per row. Plates were then incubated for the indicated time period of 4 to 6 days at 37° C. in a humid atmosphere with 95% air, 5% CO2.
(§4) To measure proliferation, Cell Titer-Glo (CTG) assays were performed as per manufacturer's instructions. Specifically, reagent-1 and reagent-2 were equilibrated to room temperature at which point reagent-1 was added to reagent-2 and mixed by vortex. Test plates containing cells were equilibrated to room temperature for 30 minutes at which point an equal volume of CTG reagent was added to each well of the test plate, typically 100 μl to give a final volume of 200 μl per well. Each plate was then sealed with a foil plate sealer and mixed on an orbital shaker for 10 minutes to lyse cells and release cellular ATP. Following mixing plates were incubated at room temperature for 15 minutes to stabilize the luminescent signal. Data was collected by measuring relative luminescence on a Synergy H1 plate reader using the luminescence program. Growth was calculated and expressed as a relative value to the unstimulated control wells on each individual plate. Growth inhibition was calculated as a function of the relative inhibition of cells treated with antagonists to the growth of cells treated with diluent only, over the same time period. Data was then plotted using GraphPad Prism software.

[2] = system: metastatic ER-positive HER2-negative breast cancer; conditions: letrozole plus palbociclib, combination arm; cited from earlier work
MCF7 cells [3] = assay: Cell cycle / S-phase by EdU incorporation and flow cytometry in MCF7 cells; type: cell-based, human
Procedure: FIG. 13 is a representative FACS plot of the cell cycle distribution. The gate settings and percentage for cells in G0/G1, S and G2/M phases are indicated. DNA synthesis (S-phase) was determined by quantifying cells positive for both EdU incorporation and DNA content.

[4] = cited from earlier work
CDK2 = CDK2 activation (phospho-Thr160) by Western blotting in MCF7 cells; type: cell-based, human; conditions: for CDK2 activation: MCF7, agent alone, 20-24 hours, HRG 10 nM, fulvestrant, palbociclib, abemaciclib 100 nM
Procedure: Cellular lysates were prepared by lysis in MPER lysis buffer with the addition of protease and phosphatase inhibitors for 30 minutes on ice. Cellular debris was removed by centrifugation at 10,000 rpm. Proteins were analyzed by Western blotting according to standard protocols.

MCF7 cells [5] = assay: Proliferation assay (Cell Titer-Glo), MCF7; type: cell-based, human; conditions: MCF7, ligands 1 nM, fulvestrant 50 nM, palbociclib 40 nM, 6 days
T47D cells = assay: Proliferation assay (Cell Titer-Glo), T47D; type: cell-based, human
Procedure: as §1, §2, §3, §4

ZR75-1 cells = assay: Proliferation assay (Cell Titer-Glo), ZR75-1; type: cell-based, human; conditions: ZR75-1
Procedure: as §2
The day after plating recombinant HRGβ1 was added to yield a final concentration of 10 nM. Control wells received media without HRGβ1. […]
(§5) To measure proliferation, Cell Titer-Glo (CTG) assays were performed as per manufacturer's instructions. […] Data was collected by measuring relative luminescence on a Synergy H1 plate reader using the luminescence program. Growth was calculated and expressed as a relative value to the unstimulated control wells on each individual plate. Growth inhibition was calculated as a function of the relative inhibition of cells treated with antagonists to the growth of cells treated with diluent only, over the same time period. […]

HCC1428 cells = assay: Proliferation assay (Cell Titer-Glo), HCC1428; type: cell-based, human; conditions: HCC1428, stimulated with HRG for 6 days
Procedure: as §1
as §5, with “instructions. Specifically, reagent-1 and reagent-2 were equilibrated to room temperature at which point reagent-1 was added to reagent-2 and mixed by vortex.” for “instructions.”

CC(=O)c1c(C)c2cnc(Nc3ccc(N4CCNCC4)cn3)nc2n(C2CCCC2)c1=O [palbociclib, 6-acetyl-8-cyclopentyl-5-methyl-2-{[5-(piperazin-1-yl)pyridin-2-yl]amino}pyrido[2,3-d]pyrimidin-7(8H)-one]
RB phosphorylation / activation (RB): decrease RB activation | proliferation (MCF7 cells [1]; MCF7, single agent CDK4/6 inhibitor over a dose range, 6 days): inhibited proliferation in a dose dependent manner | overall survival [2]: did not reach statistical significance | progression free survival (PFS) [2]: statistically significant increase | S-phase cell cycle progression (MCF7 cells [3]; MCF7, single agents in the absence of HRG): efficacious at inhibiting S-phase cell cycle progression | solubility ([4]; above pH 4): reduces significantly | solubility ([4]; at or below pH 4): high-solubility compound | CDK2 activation (CDK2): inhibited CDK2 activation

B1: HRG: heregulin, naturally occurring ligand of ErbB3; recombinant HRGβ1 from R&D Systems used in the assays (protein)
chain: SHLVKCAEKEKTFCVNGGECFMVKDLSNPSRYLCKCPNEFTGDRCQNYVMASFYKHLGIEFMEAE
RB phosphorylation / activation (RB): promoted the phosphorylation and activation of RB | inhibiting fulvestrant, palbociclib and combination activity, ligand comparison (MCF7 cells [5]): most effective ligand | effect of HRG on the CDK4/6 inhibitor-fulvestrant combination (MCF7 cells [1]; MCF7): blocked | effect of HRG on CDK4/6 inhibitor activity (MCF7 cells [1]; MCF7, HRG 10 nM, CDK4/6 inhibitor dose range): significantly repressed CDK4/6 inhibitor activity | proliferation (MCF7 cells [1]; MCF7, estradiol and HRG in combination): increased proliferation | proliferation (MCF7 cells [1]; MCF7, stimulated with HRG for 6 days): induced proliferation; also recorded: significantly increased the proliferation | proliferation (T47D cells; estradiol and HRG in combination): increased proliferation | inhibiting fulvestrant, palbociclib and combination activity, ligand comparison (T47D cells; ligands 1 nM, fulvestrant 50 nM, palbociclib 40 nM, 6 days): most effective ligand | proliferation (T47D cells; stimulated with HRG for 6 days): induced proliferation; also recorded: significantly increased the proliferation | effect of HRG on CDK4/6 inhibitor activity (ZR75-1 cells): inhibited the activity of CDK4/6 inhibitors | effect of HRG on cell cycle inhibitory activity of the palbociclib-fulvestrant combination (MCF7 cells [3]; MCF7): blocked the cell cycle inhibitory activity | proportion of cells in the S-phase (MCF7 cells [3]; MCF7, 24 hours, resting cells 15.8%): 55% | effect of HRG on cell cycle inhibitory activity of fulvestrant or palbociclib (MCF7 cells [3]; MCF7, single agents): significantly inhibited | proliferation (HCC1428 cells): induced proliferation | effect of HRG on inhibition of CDK2 activation by fulvestrant, palbociclib or abemaciclib (CDK2; MCF7, HRG 10 nM): blocked this inhibitory activity | CDK2 activation (CDK2): can activate CDK2
